Measurements from the RNAGym collection of RNA variant scans (doi:10.7554/elife.90254).

B1: LINE1-full (parent)
chain: UACGUAGGUGGUUUUCCCCUGAUAGUGCUAAGGGGGCCUGGAAGUUUGGACUGGGCAGAGCUCAACACAGCGUGGCAAAGUGGCUGUGGCUAGACUGCCUCUCUGGAUUCCUCGUCACUCAGCAGGGCAUCUCUGAGAGAAAUGCC

Variants of: B1
Assay: self-cleavage, relative activity (ratio to wild type); higher = more cleavage; in vitro, sequencing; the parent is a self-cleaving ribozyme

| Variant | self-cleavage |
| --- | --- |
| U9C G80A | 1.65 |
| U9C G82A | 2.23 |
| U9C G83U | 0.94 |
| U9C G86A | 0.16 |
| U9C G105A | 1.47 |
| U9C G114A | 1.42 |
| U9C G122C | 0 |
| U9C G127U | 1.45 |
| U9C G139A | 1.09 |
| U9C U13A | 1.11 |
| U9C U13C | 1.19 |
| U9C U14C | 1.18 |
| U9C U15A | 0.5 |
| U9C U15C | 1.28 |
| U9C U15G | 1.09 |
| U9C U20C | 1.05 |
| U9C U20G | 1.16 |
| U9C U23A | 1.22 |
| U9C U26A | 1.14 |
| U9C U29C | 1.72 |
| U9C U45G | 1.56 |
| U9C U47A | 1.18 |
| U9C U47C | 1.45 |
| U9C U52G | 1.69 |

| Variant | self-cleavage |
| --- | --- |
| U9C U62C | 0.18 |
| U9C U73A | 1.58 |
| U9C U73C | 1.27 |
| U9C U81A | 1.95 |
| U9C U81C | 1.21 |
| U9C U85A | 0.17 |
| U9C U85C | 0.3 |
| U9C U91A | 0.7 |
| U9C U91C | 1.75 |
| U9C U96G | 0 |
| U9C U100A | 1.41 |
| U9C U100C | 1.51 |
| U9C U104A | 1.4 |
| U9C U108C | 1.54 |
| U9C U109A | 1.37 |
| U9C U109C | 0.99 |
| U9C U112G | 2.63 |
| U9C U119A | 1.36 |
| U9C U119C | 1.36 |
| U9C U130A | 1.16 |
| U9C U130C | 1.3 |
| U9C U130G | 0.74 |
| U9C U132C | 1.47 |
| U9C U134C | 1.05 |

| Variant | self-cleavage |
| --- | --- |
| U9C U143A | 1.28 |
| U9G | 0.93 |
| U9G A65G | 0.25 |
| U9G A77G | 1.55 |
| U9G A107G | 1.13 |
| U9G A107U | 0.46 |
| U9G A117G | 1.31 |
| U9G A117U | 1.07 |
| U9G A124U | 1.12 |
| U9G A136G | 0.68 |
| U9G A138U | 1.51 |
| U9G A142G | 0.95 |
| U9G C146U | 1.29 |
| U9G G74A | 0.88 |
| U9G G93U | 0.05 |
| U9G U12A | 0.16 |
| U9G U13C | 0.65 |
| U9G U13G | 1.31 |
| U9G U14C | 0.68 |
| U9G U47C | 0.54 |
| U9G U85C | 0.38 |
| U9G U96C | 0 |
| U9G U100A | 0.86 |
| U9G U100C | 1.61 |

| Variant | self-cleavage |
| --- | --- |
| U9G U102C | 1.26 |
| U9G U112C | 0.73 |
| U9G U115C | 0.29 |
| U9G U119C | 1.32 |
| G10A A30G | 1.19 |
| G10A A31G | 0.45 |
| G10A A57U | 0.07 |
| G10A A64G | 0.22 |
| G10A A65G | 0.02 |
| G10A A65U | 0.14 |
| G10A A67G | 0.42 |
| G10A A69G | 0.64 |
| G10A A78G | 0.91 |
| G10A A117U | 1.21 |
| G10A A129U | 0.66 |
| G10A A141G | 0.94 |
| G10A A142G | 1.42 |
| G10A C131U | 1.19 |
| G10A G11A | 1.61 |
| G10A G21A | 1.14 |
| G10A G35A | 0.92 |
| G10A G36C | 1.89 |
| G10A G48U | 0.89 |
| G10A G97A | 0.09 |

| Variant | self-cleavage |
| --- | --- |
| G10A U12G | 0.83 |
| G10A U15C | 1.2 |
| G10A U20C | 1.6 |
| G10A U29C | 1.12 |
| G10A U52A | 0.97 |
| G10A U73A | 1.55 |
| G10A U96C | 0.16 |
| G10A U100C | 0.49 |
| G10A U102C | 1.39 |
| G10A U104A | 0.91 |
| G10A U109C | 1.08 |
| G10A U112C | 1.66 |
| G10A U115A | 0.86 |
| G10A U115C | 1.51 |
| G10A U119A | 0.93 |
| G10A U119C | 1 |
| G10A U130C | 2.22 |
| G10A U134C | 1.5 |
| G10A U143C | 1.4 |
| G10C G55A | 0.6 |
| G10C U96A | 0.22 |
| G10U A42G | 0 |
| G10U A50U | 1.99 |
| G10U A78G | 1.09 |

| Variant | self-cleavage |
| --- | --- |
| G10U A138U | 1 |
| G10U C61U | 0.05 |
| G10U G97A | 0.11 |
| G10U U13C | 0.83 |
| G10U U62C | 0.06 |
| G10U U112C | 0.93 |
| G11A | 1.31 |
| G11A A24U | 1.72 |
| G11A A42G | 1.43 |
| G11A A43G | 1.42 |
| G11A A50C | 1.24 |
| G11A A64C | 0.1 |
| G11A A69G | 0.48 |
| G11A A77G | 1.08 |
| G11A A94G | 0.08 |
| G11A A107G | 1.65 |
| G11A A124G | 0.85 |
| G11A A138G | 1.93 |
| G11A C84U | 0.15 |
| G11A C120U | 1.35 |
| G11A G70U | 0.07 |
| G11A G105A | 1.27 |
| G11A G126A | 1.2 |
| G11A G139A | 1.91 |

| Variant | self-cleavage |
| --- | --- |
| G11A U15A | 0.99 |
| G11A U26C | 1.4 |
| G11A U29C | 1.25 |
| G11A U52C | 1.41 |
| G11A U96C | 0.08 |
| G11A U104C | 1.59 |
| G11A U109C | 1.4 |
| G11A U112C | 1.37 |
| G11A U119C | 0.93 |
| G11A U132C | 1.03 |
| G11C | 1.42 |
| G11C A50G | 0.71 |
| G11C A67G | 0.46 |
| G11C A138G | 1.22 |
| G11C U20A | 0.54 |
| G11C U109C | 2.63 |
| G11U | 1.56 |
| G11U A42G | 1.58 |
| G11U A59U | 1.02 |
| G11U A69G | 0.44 |
| G11U A129G | 0.83 |
| G11U C118U | 0.91 |
| U12A | 1.17 |
